The source of these data is article PMC4251497 (2014).

This data set concerns the molecule itself. In words: analytical ultracentrifugation.

B1: Phenylalanine hydroxylase regulatory domain (RDPheH) 1-117 (protein)
chain: MAAVVLENGVLSRKLSDFGQETSYIEDNSNQNGAISLIFSLKEEVGALAKVLRLFEENDINLTHIESRPSRLNKDEYEFFTYLDKRTKPVLGSIIKSLRNDIGATVHELSRDKEKNT
B1: binding was characterised by a dissociation constant (Kd) of 46 µM.

B2: Phenylalanine hydroxylase regulatory domain (RDPheH25-117) 25-117 (protein)
chain: IEDNSNQNGAISLIFSLKEEVGALAKVLRLFEENDINLTHIESRPSRLNKDEYEFFTYLDKRTKPVLGSIIKSLRNDIGATVHELSRDKEKNT
The protein B2 came in with a Kd of 46 µM.

As usually defined, the Kd is the free concentration of one partner at which half of the binding sites on the other are occupied at equilibrium, for simple one-to-one binding. Read a high Kd as lower affinity.
